Assay results from patent US20240390468A1, “SURVIVIN AND MAGE-A9 DUAL-TARGETED IMMUNOTHERAPY” (IMMUNOVACCINE TECHNOLOGIES INC., priority 2022, published 2024).

Test system: splenocytes of A2/DR1 mice
Test: IFN-γ ELISA after stimulation of spleen cells with peptides
Format: cell-based
Description: FIG. 25 depicts cytokine response upon stimulation with reactive HLA-A2 MAGE-A9 peptides. Groups of three A2/DR1 mice were either not immunized (naive mice) or immunized twice with a pool of four reactive peptides in CTL assays (M9-A2-24; M9-A2-111; M9-A2-223; M9-A2-270) or with adjuvants only, as control. Mice were sacrificed after 28 days and spleens were collected for isolation of splenocytes. Splenocytes were restimulated for 72 h with either individual peptides or the peptide pool. Supernatant was collected and assayed by ELISA for secretion of murine INF-7. Bars represent mean of triplicate plus or minus standard deviation (SD). Tukey's multiple comparisons test was used to determine adjusted p values. *=p<0.05, **=p<0.01, ***=p<0.001, ****=p<0.0001.
INF-γ secreted after stimulation of spleen cells with the four peptides were tested by ELISA.
Supernatants from cultures of whole splenocytes stimulated with the irradiated splenocytes loaded with the peptides were collected after 72 hours of stimulation and the amounts of IFN-γ were estimated by sandwich ELISA using the mouse IFN-γ ELISA Max set Deluxe kit (BioLegend, San Diego, CA).

B1: recombinant MAGE-A9: his-tag MAGE-A9 full-length recombinant protein used as immunogen admixed with poly(I:C) (protein, UniProt P43362 1-315, looked up)
chain: MSLEQRSPHCKPDEDLEAQGEDLGLMGAQEPTGEEEETTSSSDSKEEEVSAAGSSSPPQSPQGGASSSISVYYTLWSQFDEGSSSQEEEEPSSSVDPAQLEFMFQEALKLKVAELVHFLLHKYRVKEPVTKAEMLESVIKNYKRYFPVIFGKASEFMQVIFGTDVKEVDPAGHSYILVTALGLSCDSMLGDGHSMPKAALLIIVLGVILTKDNCAPEEVIWEALSVMGVYVGKEHMFYGEPRKLLTQDWVQENYLEYRQVPGSDPAHYEFLWGSKAHAETSYEKVINYLVMLNAREPICYPSLYEEVLGEEQEGV
modifications: full-length His tag
Q: How did the “subtype of T cells induced after immunization” value turn out when B1 was run?
A: The value was “Th1 subtype”.
